Source: paper PMC5395218, “Biochemical and structural investigations on phosphoribosylpyrophosphate synthetase from Mycobacterium smegmatis” (PLoS ONE, 2017)

T1: phosphoribosylpyrophosphate synthetase (MsPrsA) (Mycolicibacterium smegmatis, UniProt A0R3C8)
T1 construct: gene prs; recombinant MsPrsA, hexamer
T1 sequence (A0R3C8 1-326): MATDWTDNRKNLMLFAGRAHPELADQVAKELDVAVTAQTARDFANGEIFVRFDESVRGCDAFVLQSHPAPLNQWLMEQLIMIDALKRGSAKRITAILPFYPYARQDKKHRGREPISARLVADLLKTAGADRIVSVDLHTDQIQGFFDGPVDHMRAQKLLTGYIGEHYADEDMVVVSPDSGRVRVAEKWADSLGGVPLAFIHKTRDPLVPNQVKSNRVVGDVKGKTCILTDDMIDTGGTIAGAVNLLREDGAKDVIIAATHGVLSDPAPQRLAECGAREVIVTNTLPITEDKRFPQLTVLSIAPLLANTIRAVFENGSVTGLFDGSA


Key:
[1] = target: T1, phosphoribosylpyrophosphate synthetase (MsPrsA); test: OPRT-coupled spectrophotometric assay, dose response on purified enzyme; type: biochemical
[2] = target: the molecule itself; test: SEC; analytical gel filtration on Sephacryl S200HR 16/60, MsPrsA 1 mg/ml in Tris-HCl 20mM pH 8.0, NaCl 50mM; column calibrated with Blue Dextrane, catalase, aldolase, albumin, ovoalbumin; elution volume consistent with about 221 KDa
purified protein = substrate: Nc1ncnc2c1ncn2[C@@H]1O[C@H](COP(=O)(O)OP(=O)(O)OP(=O)(O)O)[C@@H](O)[C@H]1O; test: purified protein; type: biochemical, Mycolicibacterium smegmatis; conditions: Mg2+, inorganic phosphate

Row | Molecule | IC50 [1] [µM] | stoichiometry N [2] | K0.5 (purified protein) [mM] | Vmax (purified protein) [µmol/min] | kcat (purified protein) [s⁻¹] | kcat/Km (purified protein) [M⁻¹ s⁻¹]
1 | Nc1ncnc2c1ncn2[C@@H]1O[C@H](COP(=O)(O)OP(=O)(O)O)[C@@H](O)[C@H]1O [ADP] | 174 ± 46 |  |  |  |  | 
2 | Mycobacterium smegmatis phosphoribosylpyrophosphate synthetase (PrsA) (enzyme, M. smegmatis mc2155, UniProt A0R3C8 1-326, looked up, Phosphoribosylpyrophosphate synthetase (PrsA) of M. smegmatis mc2155; the crystal model holds Arg9-Gly316 without Arg204-Lys213; pCold I is recalled to add an N-terminal translation enhancing element, His6 and a Factor Xa site; also called MsPrsA; M. smegmatis PrsA) MATDWTDNRKNLMLFAGRAHPELADQVAKELDVAVTAQTARDFANGEIFVRFDESVRGCDAFVLQSHPAPLNQWLMEQLIMIDALKRGSAKRITAILPFYPYARQDKKHRGREPISARLVADLLKTAGADRIVSVDLHTDQIQGFFDGPVDHMRAQKLLTGYIGEHYADEDMVVVSPDSGRVRVAEKWADSLGGVPLAFIHKTRDPLVPNQVKSNRVVGDVKGKTCILTDDMIDTGGTIAGAVNLLREDGAKDVIIAATHGVLSDPAPQRLAECGAREVIVTNTLPITEDKRFPQLTVLSIAPLLANTIRAVFENGSVTGLFDGSA |  | 6 | 0.058 ± 0.005 | 0.006 | 83.5 ± 4.1 | 1.44e+06 ± 53800
